Test results reported in the domain aggregation screens of Martell et al. (2025).

Test: soluble fraction after stress (log2 fold change); higher = more stays soluble; pooled small domains, quantitative proteomics
Conditions: stress: 50 degC
Procedure, shortened: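 Custom libraries of small protein domains were pooled and measured in a high-throughput format, with quantitative proteomics as the read-out. Each library was stressed at 50°C. The value is the log2 fold change in the amount of each protein that stays soluble after stress, used as a measure of aggregation propensity; higher values mean more of the protein stays soluble.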

Sequence	soluble fraction (log2)
HMQTFGTMIAALRKEQGMTQLELAEKMGVTDKAVSKWERDLSFPDVNSLPKLAEIFHVSVDEL	-0.229
HMVKETNYSFFLKQIDAGTVEQVQIEDTEIKFKVSTADGKEQVYSTVRVEDPDLVDRLYSKGNIDFTGN	-0.0595
HMTFPIDINRADTEQLTALPGIGEVLAKRIIAYREENGSFLSTDELKNVEGIGEKRLEAIVDLITIG	0.113
HMKKSRLHSVLEEIPGIGEKRRKILIKHFGTVEAIKKSSLEELARIKGMNRRAAQNVLEYLK	-0.0583
HMDPLPDEVQEVIDMVDGFKAMDELSEADKADVKAAYDAYNALSAEHKAMVPEHIVTFLNRAYDKLFD	0.0291
HMSHSDMEEWTDAVRSRRKKLGLTQVQIARRLGVTSHHFSQIESGRTIPSASLQIEIDRLLKNWND	-0.963
HMNEWSIDINLADEKQWTAKTKLSPAIIQNIIRYKNYLGGFTNLNQIKKVYGFTEANYYLLKPHLQLGK	-0.909
HMKVTADVVVADRLKAWIISNNLKPGDRLPTEQKLSEELGVARHTLREGIKRLSQLGIIGSRTGSGMYVKN	0.0235
HMNDMPELLSIKEASQWATEYLNKNVTTSNIAYLIQYGRIRKIGNNGSTQVLKDDLVKYYKDQK	-0.139
HMKDEHYLYIKARVDNGDYPHLSELKSAEEIELVMPKLLQDGIVEFNKETGEYTIGEDVKAEIERL	0.108
HMYSQEEKRYMEIMEIKPQELSAENLKKQYKKLVKKYHPDLHQDDKQAAEEKFKQLTNAYQVLMRRF	0.0779
HMNKWMQLASEEDKKLFNEAPKEIQDSITESAKFFDIRTKADVDTFWANTGLRQMKQQAMLNESFVNEY	-0.0275
HMSVISVETAKSKALAHAGLTASKVTFIENKLEWDDGRQVYDIEFYTSDYKEYDYTIDAVSGQVLEFDY	-1.13
HMIDFDEIEILSSSKIEKIENSEYLKSSIFEKDSNQYIYRLSFENRDQLKNFKKEIEDIDQIKKIDVTY	0.103
HMTQFSASSERAGAGGAYRTTLRAMEQNGDLLQISILLPDAVTAKHAATVWPERAQAIYTAILSELLK	-0.446
HMRMLLKELLIQYEVKNDKSHVEVAKEVGVSLSTYYRWLNGESLHLKKRTIDRLSEVLHYDINQVVEES	-2.35
HMDHAVINSEEVTIKDLSEKIGVSAAEIIKALFTEGIIKTINDKIEYEYAQYVAGMFGVELTLKL	0.277
HMNRKLKAKATREKIYKSAEKLFSQNDYNKVSVDAIVEAAGVAKGSFYVHFASKDALIAMLINDH	-0.179
HMKKILLGDVNLDGKVDVNDVTLLQRYIAGETEVITSKDALTATNFNKDGNIDVLDVTDIQTFIANSE	0.0836
HMGELRAPLPGVIVSIPVKEGDEVKAGQAILIIEAMKMESEISSPIDAKVAKIVVKERVLVQEGDILIILE	-0.702
HMQVTDTGTIEGEIDKVLAANPDRVTEYHDGKEKILGWFVGQVMQTTKGKANPQMVNQLFLEKLK	0.142
HMRTNNEITSYKLKSGKKRWKFQTYLGLDDKGQKVSVTRQGFRTYNEAISEYNKLRAQGTQGYQ	-0.355
HMAEPYDERKVMEQMIPKGKNTIVAHLGHLKDHGETGYLQEALSYLRERESELGFDLKEVRALVHN	0.251
HMREITVEELYELEGIRIVGTIPGISAWVAESGRQMVFLVGQKVKGHDLLEVGESRVVLRKGDSVVNVLL	-0.0622
HMINLDGIGEKISRLRKEQGVTIRELSEYTGYSVGFLSNLETGKNSPTVESLQRVAEALRTDIIEILTK	-0.312

Sequence	soluble fraction (log2)
HMLSDFHLNHDSIVNHTVQKKETIFSLSKKYGLSINEIIKANPGIQIDKLKRRSILIIPLRKK	-1.9
HMAEVPDLRNKTQQEAEAELTNHNLKLGNVTEEYSATVEAGRVISQSTSYGTKVLEGSSVDITISKGPEPT	-0.0123
HMIDLPEAFIQQLKEAVDVGDVTGLRELLGQLRRRYPQQSALSDEAERLLREFDFERLAQLFEGLD	-1.42
HMPSPFYIMDEVEAALDDTNLGRLITLFEELRDSSQLIVITHQKKTMEIADALYGVTMRGDGITTVVSQRL	-0.343
HMENSMDTDWDVSGVDPSQYRLLFSTLGAIAGVKDVGLNPDGLKIIHTPEALPAIKQAFDANNLKLKMRTN	0.163
HMEELIEMNGVVMEILPDSRYRVTLDNGHKLIAYTGGKMKKNHIRILAGDKVTLELSPYDINNGRITFRHI	-1.28
HMEPFEQLLDRITSQTGKEPEEVVARMNELITERFDGNIRPEAALVIVAKRDNIQFMDLLDQLKQALL	-0.516
HMRMRPNERQKRIIELLSFRRHETIGNFANEFGVSRDTIKRDIITLQEEYPIISERGYEGGISLPDGYYI	-0.263
HMSIAKIIGDRIRAYRNQKGWSQEYLAEKADVHHTYIGQLERGEKNATIESISKIAGALGVSLSRLFEN	-0.0998
HMAWAVRAGEGVLIRAGQPGFSATTRGTALSNGAIGEGVRVRNLGSGKEIQAWVVDKGEVETR	0.0168
HMLIIMNSDATKEQVDHVTSRVREAGFKDHIMPGAGKVAIGVTGTGDYDQTKLHLEILPGVFKIMRITK	0.0895
HMEVMYFIYQQEEPMRIDKFLVNEMEDFSRNSIQIYIKDNHVLVNDKVVKANYILKKGDAISITIPDPI	-0.404
HMRELPKRPEIRYAAGDRVFHKAFGNGLVKQVAQTAGGARVTVDFGEGKGVKTFAGDAPMIKI	0.342
HMKHFFIIAGGKIEDAFAIEVLKGFAEKTVIAADSGMEFLRRNEIVPQVIIGDFDSVSKETLEWFQKK	-0.703
HMNKLSISALAETVSTKRKEKSMTQQDLSDATGINRALISRLEQKDFIPSIPQLEKLEEILGFELEEVF	-0.0428
HMSEQMQVGELVFQLHRKAIKNLHINVLPPDGFVRVSAPQAMTETAIRTAVISRLPWIRRQQQAFAAQ	-2.12
HMTTTYEINDEMLKPLILEIFNKSKQRFGSTKIAPVLKREGYTASIAKVKTLMNELGIKPVNA	-0.319
HMDLDLNIDNYNFDDLLNLFGLKMKFSEDDLKKAKRSVLMTHPDKSGLDKQYFMFFTKAYKMLSQIYYFR	0.42
HMHKREKSFFETIYDDIPGIGKKRRVQLLSAYPTLDSLKSVTLEELKQIVPEESAKLILEKRDSR	0.0407
HMSDDAVVRMRVPEDALGLSLRETDFRQRFGVYVLAIETRDGKLLAPPDPQRPLGKDDVLVVIQKR	-0.138
HMQLNNTDELEKIILKILENNPKQVDQFLAGKQKLLGFFVGQAMRATSGKANPKTVNDLLEKFLSK	-0.0714
HMSASNSIDFANRMIYNKNQVAVFNFGKHMGRPVLEVLKSDPSYYDWMMKGDFPMDTKRKLTEIKLQGF	-0.755
HMVPHQPRVWTNTAGKTITAAFVRFNAAGRKVSLKLEKGRQVELPLASLSGNDVDWIKEHVPEAMSNQE	-0.142
HMTGQHFDLEDTDGNLVYEIDSTVPLKTFYIYDAMHTEIFRMTKELLHALPTYRFYLYGEPYGVLKKQ	-0.174
HMEVSVPDFTGMSKSDAQNAAKEAGLTVNFEEDYDNQVPAGQVIRSNPSAGEKVKKNSSVTVTLSKGSN	-0.0943

Sequence	soluble fraction (log2)
HMHDIPDITDLRPLRHTLGLTLAHAAQQLNTTTATISRLERGQHRNDHLATTYRTWLHTHPT	-0.15
HMFFMTMGEKIQLLRKKQNWSQETLAEKLSVSRQAVSLWERDESQPELDKLLKLAKIFSVTTDYLIDDSVT	-0.386
HMRLYTQDVAVLNRDVIQGEVITSDMVTTVNVHKRTVPTGALNLSEIPGNVAKFNIPASIPITASMVTK	0.0171
HMSFGWETLEGKEGVTDTDLHPSGWVKVGDEKIFVVSQGEFLGKGTDIVVVSVDGNRVVVKELI	-0.694
HMRDDAIQQGREIVERELHRLDLAYTTLTDVLAKLEYEKLDDLYAAVGFGIRSPHSVAAAALQVERDKA	-0.569
HMKFNEKQNEVRIAIMNFIIDNKRPFHMKQDGYDALEGITLSGRHEFQDILDVLHSRDGFSADEEGNINF	-1.51
HMSTTALLEKMVRYIRTLPVISQVVLSLHYYRGMELREIASELDITESRASQLHTTAVLGIRDLLSSY	-3.33
HMPKELAPYDILARYYLTVNNSKQSIALLEQYLDKAGSAPAALKAKLLLAGILYPSGNKERAEKLVEEVIK	-0.465
HMSSEPASLVGKTGVAASVLRPSGRVEVNGEYYDAVSINGFIEKGESVFVHKYENAQLYVSKNSE	0.0445
HMSATQDAAIAVRIRDILSELDGYEDVTVTVTSGIVTMRGTTLDSEKIARLNDLTGRVEGVVAIENSVTET	-0.367
HMGSALLEAGADDAGQRLDQWLAAKLGPSISRSRVQALIKQGAVLVGGKPAGEAKRKLVAGDVVSVALPEP	0.0853
HMSFSPYLVRVSITDLNIRKGPGTNYAKTGKFTGKGVFTIVEMQTGKGSDTGWGRLKSGAGWISLDYTEKI	-3
HMTKTKFLSKDMILSAMSRTKSNRAAARYLSVSFVHYKKYAREYKDETSGVSLWEKHKNQSGTGIPK	-1.92
HMEMKHKNSQIFQAIKLKHMGFTPTQISEELRVSRTTINHWLTKAQLKDVKWEDIRENSADELVKLLFG	-0.229
HMIEKVNDYVVRFANVNGTGSASANNLFALAIYRMGVPVTPKNIFPSNIQGLPTWFEVRVSGSGYLARRG	0.01
HMKYWTISDLYSKLEEDQVELGAFSEDSNKVTVLDRQGYEHVIKILSSDVPALTELFRKKKVRFAVAG	-0.132
HMYHNKFADLAGFIAFNEKNEEIFTFGKYKGQNVKEVFQRDIGYYGWLQNADFPLYTKKVFTAIQLRSR	-2.16
HMALLSDEERIATVFAARLGGYSHQEIYKLLQDRFGPSLPAAYSEKSVLTDLQTALSQVPSL	-0.208
HMDWFDELKVSTDDSGRVTAPEESEFMFQTSNEKIFAGGDMVRGSDLVVTAIWEGRQAAEGIMDYLD	-0.16
HMLPPHMEVRAIMILDKRPMALMNIEGEGDGLIVSPGYRFGDGRGRVVSITQTKVVVLWAGTSMEL	-2.28
HMRGVDRPLTLPRHWRRNAGRLVKVTLANGSAVTGRVLDPGEERVTLEVSGERHEVAYADVKKALVQVEF	-0.169
HMPSLSREREAAILEMIERRPSTAEDVASGLGLAVNEVIKLLDGTALRGSVETFQSGEEIYYTRKR	0.144
HMTVKRNLVQEILRLKFRHPENFMPNRAFYQEVGINQMRWWDIFYGRKNINQEEYIALSKYF	-0.237
HMKKILITGNSGYIGSHLSKMLENDYEVHGLDIRQPQHPVAKFYEQDINRPINIEEEYDAVIHLAALV	-0.196
HMNSLPFSNFMNEVEAGRVVEVKIQGNNISGVLANGKTFSTYSPNYPELVEKLSSNGVSIVATPQ	0.153
